Source: US20120183570A1 (WASHINGTON STATE UNIVERSITY, published 2012)

Legend:
[1] = target: T1, Human plasma fibronectin (Fn) (human, UniProt P02751-9 32-2240, limits assumed); assay: ELISA, Fn on peptide-coated wells
T1 construct: It is treated as the same molecule; also called full-length Fn

[2] = target: T1, Human plasma fibronectin (Fn); assay: ELISAs with GST domain fusions and Fn
[3] = target: T2, Fn gelatin-binding domain (GBD), 40 kDa fragment (human, UniProt P02751 291-630); assay: ELISA on GBD-coated wells, anti-GST detection
T2 construct: also called Fn-GBD
T2 sequence (P02751 291-630 limits assumed): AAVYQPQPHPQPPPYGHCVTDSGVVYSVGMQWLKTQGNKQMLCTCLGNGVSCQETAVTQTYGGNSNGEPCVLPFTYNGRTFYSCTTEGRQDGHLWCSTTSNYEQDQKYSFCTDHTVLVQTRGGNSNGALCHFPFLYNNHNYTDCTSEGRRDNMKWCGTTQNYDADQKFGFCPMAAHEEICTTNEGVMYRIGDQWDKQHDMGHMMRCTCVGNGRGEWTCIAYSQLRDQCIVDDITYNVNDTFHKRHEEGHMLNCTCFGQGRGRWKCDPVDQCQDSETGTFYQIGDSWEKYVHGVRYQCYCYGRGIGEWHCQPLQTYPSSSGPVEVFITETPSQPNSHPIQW

[4] = target: Bovine serum albumin (BSA) (bovine, UniProt P02769 25-607); assay: ELISA on BSA-coated wells, anti-GST detection
Bovine serum albumin (BSA), sequence (P02769 25-607 limits assumed): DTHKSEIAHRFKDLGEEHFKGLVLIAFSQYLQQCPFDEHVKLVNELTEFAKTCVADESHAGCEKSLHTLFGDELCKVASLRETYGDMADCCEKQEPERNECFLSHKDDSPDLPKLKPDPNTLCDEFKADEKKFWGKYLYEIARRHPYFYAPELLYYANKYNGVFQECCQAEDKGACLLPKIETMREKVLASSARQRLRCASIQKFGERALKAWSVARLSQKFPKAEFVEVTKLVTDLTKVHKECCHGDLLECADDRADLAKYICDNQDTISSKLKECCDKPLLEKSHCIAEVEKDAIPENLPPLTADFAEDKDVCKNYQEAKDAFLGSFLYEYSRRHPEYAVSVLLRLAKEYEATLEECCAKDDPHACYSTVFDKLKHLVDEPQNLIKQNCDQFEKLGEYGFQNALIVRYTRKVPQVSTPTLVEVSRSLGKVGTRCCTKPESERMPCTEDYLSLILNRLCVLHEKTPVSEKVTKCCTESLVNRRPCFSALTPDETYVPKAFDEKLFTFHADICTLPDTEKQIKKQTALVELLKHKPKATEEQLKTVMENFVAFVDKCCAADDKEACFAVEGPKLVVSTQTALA

Ovalbumin = target: T3, Ovalbumin (UniProt P01012 2-386); assay: ELISA on ovalbumin-coated wells, anti-GST detection
T3 construct: also called ovalbumin (negative control)
T3 sequence: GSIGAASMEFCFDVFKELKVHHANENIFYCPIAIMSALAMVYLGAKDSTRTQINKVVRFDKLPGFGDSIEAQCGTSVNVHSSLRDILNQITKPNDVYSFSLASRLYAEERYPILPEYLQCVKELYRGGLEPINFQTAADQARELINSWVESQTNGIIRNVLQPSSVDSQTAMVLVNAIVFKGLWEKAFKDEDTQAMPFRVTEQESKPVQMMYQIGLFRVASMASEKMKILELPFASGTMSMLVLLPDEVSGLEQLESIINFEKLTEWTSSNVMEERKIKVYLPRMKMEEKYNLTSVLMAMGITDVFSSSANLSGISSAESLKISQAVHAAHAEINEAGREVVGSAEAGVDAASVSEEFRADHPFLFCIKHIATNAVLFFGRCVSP

[5] = target: T4, Fn N-terminal domain (NTD), 30 kDa fragment (human, UniProt P02751 32-290); assay: ELISA on NTD-coated wells, anti-GST detection
T4 construct: domain: N-terminal domain (NTD), FN1 1-5; also called 30 kDa NTD; 30-kDa proteolytic fragment from human Fn
T4 sequence (P02751 32-290 limits assumed): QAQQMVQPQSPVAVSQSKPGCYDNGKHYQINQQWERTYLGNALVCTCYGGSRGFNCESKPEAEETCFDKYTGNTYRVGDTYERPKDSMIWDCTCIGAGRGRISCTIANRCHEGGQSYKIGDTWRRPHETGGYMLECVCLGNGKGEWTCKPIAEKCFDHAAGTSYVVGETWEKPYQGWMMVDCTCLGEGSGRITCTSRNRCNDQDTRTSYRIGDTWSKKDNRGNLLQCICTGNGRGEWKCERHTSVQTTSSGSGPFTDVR

[6] = target: T2, Fn gelatin-binding domain (GBD), 40 kDa …; assay: ELISA, GST fusion on GBD-coated wells (FIG. 22)

T1 sequence (P02751 other isoform, or with tags, fused parts or gaps limits assumed): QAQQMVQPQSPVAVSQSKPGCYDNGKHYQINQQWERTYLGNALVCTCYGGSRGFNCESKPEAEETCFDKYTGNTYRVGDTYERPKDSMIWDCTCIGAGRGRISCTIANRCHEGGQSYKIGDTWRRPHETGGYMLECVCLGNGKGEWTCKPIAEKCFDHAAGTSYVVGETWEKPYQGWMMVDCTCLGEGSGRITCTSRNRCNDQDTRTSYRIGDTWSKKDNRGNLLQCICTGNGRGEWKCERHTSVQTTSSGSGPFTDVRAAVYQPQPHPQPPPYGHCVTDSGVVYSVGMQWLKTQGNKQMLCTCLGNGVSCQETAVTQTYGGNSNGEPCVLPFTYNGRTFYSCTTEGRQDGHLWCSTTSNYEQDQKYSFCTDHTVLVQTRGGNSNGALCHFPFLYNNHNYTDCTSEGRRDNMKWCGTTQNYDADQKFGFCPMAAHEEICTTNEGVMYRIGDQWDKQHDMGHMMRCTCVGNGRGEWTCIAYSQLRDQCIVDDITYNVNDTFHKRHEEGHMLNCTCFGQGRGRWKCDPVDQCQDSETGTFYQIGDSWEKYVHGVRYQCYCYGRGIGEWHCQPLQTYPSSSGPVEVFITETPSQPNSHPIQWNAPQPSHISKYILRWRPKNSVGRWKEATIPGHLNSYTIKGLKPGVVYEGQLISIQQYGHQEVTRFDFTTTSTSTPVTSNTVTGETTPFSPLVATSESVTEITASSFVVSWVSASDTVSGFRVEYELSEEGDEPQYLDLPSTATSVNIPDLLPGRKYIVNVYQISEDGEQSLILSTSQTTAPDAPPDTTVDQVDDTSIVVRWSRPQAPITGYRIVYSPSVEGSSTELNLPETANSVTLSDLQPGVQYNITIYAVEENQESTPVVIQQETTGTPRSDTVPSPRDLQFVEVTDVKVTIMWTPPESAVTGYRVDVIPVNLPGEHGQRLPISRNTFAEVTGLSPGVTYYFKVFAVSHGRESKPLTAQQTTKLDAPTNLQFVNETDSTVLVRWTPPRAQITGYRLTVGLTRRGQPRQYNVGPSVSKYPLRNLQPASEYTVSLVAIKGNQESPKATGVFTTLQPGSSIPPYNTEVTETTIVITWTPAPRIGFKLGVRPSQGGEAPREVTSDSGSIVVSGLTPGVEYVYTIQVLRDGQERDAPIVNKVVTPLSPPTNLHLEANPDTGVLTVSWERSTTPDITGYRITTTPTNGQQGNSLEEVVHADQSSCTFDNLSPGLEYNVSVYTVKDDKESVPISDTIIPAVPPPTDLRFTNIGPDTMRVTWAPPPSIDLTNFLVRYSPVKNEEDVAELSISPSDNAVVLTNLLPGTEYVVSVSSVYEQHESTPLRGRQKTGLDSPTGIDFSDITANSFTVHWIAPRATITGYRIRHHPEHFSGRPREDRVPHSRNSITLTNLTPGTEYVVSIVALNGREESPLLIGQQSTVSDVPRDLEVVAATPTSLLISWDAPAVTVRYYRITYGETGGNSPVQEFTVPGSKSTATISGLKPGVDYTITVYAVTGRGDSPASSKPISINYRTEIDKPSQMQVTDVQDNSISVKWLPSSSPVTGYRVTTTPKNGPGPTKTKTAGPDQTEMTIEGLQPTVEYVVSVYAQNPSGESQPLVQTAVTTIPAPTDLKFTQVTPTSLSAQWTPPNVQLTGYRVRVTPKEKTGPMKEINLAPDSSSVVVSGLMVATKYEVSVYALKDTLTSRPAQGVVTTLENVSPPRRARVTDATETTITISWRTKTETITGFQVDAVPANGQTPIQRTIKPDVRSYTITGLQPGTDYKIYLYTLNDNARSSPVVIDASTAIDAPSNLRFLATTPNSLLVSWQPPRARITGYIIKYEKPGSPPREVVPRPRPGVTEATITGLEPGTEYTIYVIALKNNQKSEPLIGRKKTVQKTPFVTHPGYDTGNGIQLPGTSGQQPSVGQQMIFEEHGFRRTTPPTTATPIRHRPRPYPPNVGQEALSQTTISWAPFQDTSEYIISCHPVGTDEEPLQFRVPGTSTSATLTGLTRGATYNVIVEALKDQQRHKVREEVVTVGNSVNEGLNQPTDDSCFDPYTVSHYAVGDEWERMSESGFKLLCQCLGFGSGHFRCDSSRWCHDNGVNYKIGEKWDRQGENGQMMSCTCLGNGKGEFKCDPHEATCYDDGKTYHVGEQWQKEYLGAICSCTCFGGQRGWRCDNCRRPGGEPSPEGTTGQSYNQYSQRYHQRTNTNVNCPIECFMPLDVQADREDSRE

B1: FlpA peptide P5 (D195-V224) (peptide)
peptide: DSDLKPNENSSYRIIAVSFNGIKSGSSQVV
notes: Synthetic 30mer of FlpA-D2; Used as a negative control in later ELISAs
**Q.** Does B1 bind [1]?
**A.** Result: no binding

B2: CadF peptide FRLS- (aa118-133) (peptide)
peptide: YDNKSGGFGHYGAGVK
notes: Synthetic negative control peptide; also called CadF FRLS^-
**Q.** Does B2 bind [1]?
**A.** Result: no binding

B3: FlpA-D1-GST (aa35-132) (other)
chain: PAVNESLPKVESLKSLSDMSNIAFEWEPLYNENIKGFYLYRSSDENPDFKLVGTIKDKFQTHYVDTKLEPGTKYRYMMKSFNEQGQISEDGKVIEVST
notes: not shown: glutathione S-transferase (GST) tag of vector pGEX-5x-1, N-terminal
**Q.** What does the source list for B3?
**A.** binding result [2]: no binding; binding result [3]: no binding (tested: up to 1000 nM)

**Q.** Does KKIAEVKNRLNAEYIDSDLKPNENSSYRII (Synthetic 30mer of FlpA-D2) [FlpA peptide P4 (K180-I209)] bind [1]?
**A.** Result: no binding

**Q.** Does FVQAVTNLPNRIKLIWR (Synthetic peptide) [FlpA peptide P7 (F141-R157)] bind [1]?
**A.** Result: no binding

B4: FlpA-D3-GST (aa232-410) (other)
chain: PPQVEHLSASTDGSSKIILTWDAPTYEDFSYYKVYSTSSSFLPFSVLAKTDKNSYEDIVEGAGKSKYYKVTMVDKDGLESPMPKDGVEGKTLGNPLAPSIILAQSTSEGINLEWSDNDTRAVEYEVRRYGGEQNAVFKGIKEKRLKDVKALPGVEYSYEVIAIDSAGLRSEPSSKVKAA
notes: as for B3
**Q.** Does B4 bind [2]?
**A.** Result: no binding

**Q.** Does B4 bind [3]?
**A.** Result: no binding (tested: up to 1000 nM)

**Q.** Does DSYIIERTKGDDKEFKKIAEVKNRLNAEYI (Synthetic 30mer of FlpA-D2) [FlpA peptide P3 (D165-I194)] bind [1]?
**A.** Result: no binding (tested: Fn up to 20 µg/ml)

B5: FlpA-GST (aa35-410) (other)
chain: PAVNESLPKVESLKSLSDMSNIAFEWEPLYNENIKGFYLYRSSDENPDFKLVGTIKDKFQTHYVDTKLEPGTKYRYMMKSFNEQGQISEDGKVIEVSTAPRLEAVPFVQAVTNLPNRIKLIWRPHPDFRVDSYIIERTKGDDKEFKKIAEVKNRLNAEYIDSDLKPNENSSYRIIAVSFNGIKSGSSQVVSSTSKALPPQVEHLSASTDGSSKIILTWDAPTYEDFSYYKVYSTSSSFLPFSVLAKTDKNSYEDIVEGAGKSKYYKVTMVDKDGLESPMPKDGVEGKTLGNPLAPSIILAQSTSEGINLEWSDNDTRAVEYEVRRYGGEQNAVFKGIKEKRLKDVKALPGVEYSYEVIAIDSAGLRSEPSSKVKAA
notes: also called full-length FlpA-GST; FlpA full-length; not shown: glutathione S-transferase (GST) tag of vector pGEX-5x-1, N-terminal
**Q.** Does B5 bind [4]?
**A.** Result: no binding

**Q.** Does B5 bind (Ovalbumin)?
**A.** Result: no binding (tested: up to 1000 nM)

**Q.** Does B5 bind [5]?
**A.** Result: no binding (tested: up to 1000 nM)

B6: FlpA-D2-GST (aa135-226) (other)
chain: RLEAVPFVQAVTNLPNRIKLIWRPHPDFRVDSYIIERTKGDDKEFKKIAEVKNRLNAEYIDSDLKPNENSSYRIIAVSFNGIKSGSSQVVSS
notes: also called FlpA domain 2; not shown: glutathione S-transferase (GST) tag of vector pGEX-5x-1, N-terminal
**Q.** Does B6 bind [6]?
**A.** Result: binds

**Q.** Does B6 bind (Ovalbumin)?
**A.** Result: no binding (tested: up to 1000 nM)

**Q.** Does B6 bind [5]?
**A.** Result: no binding (tested: up to 1000 nM)
